According to patent publication US6689878B2, “Target of RNAIII activating protein (TRAP)” (The Regents of the University of California, priority 1998, dated 2004):

Experiment: Sensitivity of TRAP phosphorylation to acidic and basic conditions
Type: physicochemical, Staphylococcus aureus
Excerpt: Two-component systems act through phosphorylation of the substrate domain of the sensor protein and subsequent transfer of the phosphate to an aspartate residue in the regulator protein. The initial phosphorylation is catalyzed by a protein histidine kinase domain in the sensor protein and results in an N-phosphorylated histidine residue, which is stable in alkaline conditions but not in acidic conditions (Wei et al. Methods Enymol. 200:388-414 (1991)). To test whether TRAP may be histidine-phosphorylated and therefore a candidate sensor to RAP, phosphorylated TRAP was tested for sensitivity to acidic and basic conditions. Phosphorylated TRAP was incubated at pH ranging from 3-10, for 10 min at room temperature. The mixture was then applied to SDS PAGE and the gel autoradiographed.

B1: Phosphorylated TRAP: approximately 21 kDa S. aureus protein target of RAP, SEQ ID NO:2, phosphorylated by RAP (protein)
chain: MKKLYTSYGTYGFLHQIKINNPTHQLFQFSASDTSVIFEETDGETVLKSPSIYEVIKEIGEFSEHHFYCAIFIPSTEDHAYQLEKKLISVDDNFRNFGGFKSYRLLRPAKGTTYKIYFGFADRHAYEDFKQSDAFNDHFSKDALSHYFGSSGQHSSYFERYLYPIKE
modifications: phosphorylated
- Stability of TRAP phosphorylation in lower pHs (lower pHs (range tested pH 3-10), 10 min at room temperature): labile
- Stability of TRAP phosphorylation at pH 8-10 (pH 8-10, 10 min at room temperature): stable
